According to patent US20220213193A1 (BROWN UNIVERSITY, published 2022):

Target: T1, recombinant human (rh) CHI3L1 (human, UniProt P36222 22-383)
T1 construct: also called rhCHI311; human CHI3L1
Test: competitive ELISA on recombinant antigen

T1 sequence (P36222 22-383 limits assumed): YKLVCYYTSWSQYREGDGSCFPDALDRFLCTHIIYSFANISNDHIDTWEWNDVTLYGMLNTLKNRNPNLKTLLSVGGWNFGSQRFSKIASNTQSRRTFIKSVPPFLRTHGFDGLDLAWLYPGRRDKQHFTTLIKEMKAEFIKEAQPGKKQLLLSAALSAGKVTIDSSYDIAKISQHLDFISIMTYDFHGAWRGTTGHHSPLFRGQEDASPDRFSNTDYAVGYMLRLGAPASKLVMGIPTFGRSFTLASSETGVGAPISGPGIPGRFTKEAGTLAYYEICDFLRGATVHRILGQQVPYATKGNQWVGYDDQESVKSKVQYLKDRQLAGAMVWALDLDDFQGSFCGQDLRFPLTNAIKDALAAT

Kd: ~1 nM
B1: anti-human CHI3L1 antibody FRG (antibody, V domains shown)
VH: QIQLVQSGPELKKPGETVKISCKASGYTFTNYGMNWVKQAPGKGLKWMGWINTYTGEPTYADDFKGRFAFSLETSASTAYLQINNLRNEDMSTYFCARLGYGKFYVMDYWGQGTSVTVSS
VL: DVVMTQTPLSLPVSLGDQASISCRSSQSLVHSNGNTYLHWYLQKPGQSPKLLIYKVSNRFSGVPDRFSGSGSGTDFTLKISRVEAEDLGVYFCSQSTHVTWTFGGGTKLEIK
notes: also called anti-CHI3L1; α-CHI3L1
